# Laboratory results: US20050048060A1, “Immunoconjugates” (priority 2002, published 2005)
# Assays:
# [1] = parameters: species or system nude mice
# Procedure: Studies were undertaken in nude mice to establish the extent of cAb-CEA5::β-lactamase conjugate localization in LS 174T tumor xenografts. ^125I labeled cAb-CEA5::β-lactamase (4,728,481 cpm/μg conjugate) or cAb-Lys3::β-lactamase conjugate (2,691,621 cpm/μg conjugate) were injected i.v. (1 mg/kg) into mice (3 animals/group) that had subcutaneous LS 174T carcinoma tumors of about 0.5-1 cm diameter. The amount of radioactivity in the tumors, blood, and several other tissues was determined 6 hours, 24 hours and 48 hours later (FIG. 4). […] A rather high accumulation of both cAb-CEA5::βL and cAb-Lys3::βL conjugates in the kidneys (0.41-0.53% ID/g tissue) was also noticed. In order to see whether the radioactivity measured originated from intact conjugate molecules or degraded material, the enzymatic activity of β-lactamase in targeted tumor, liver and kidney tissue using nitrocefin was assessed. […] The blood and normal tissue levels were still high at this time point and, thus, tumor/normal tissue ratios were low. After 24 hours, although the amounts of cAb-CEA::βL conjugate in the tumors had fallen to approximately 1% injected dose/g tumor, the blood and normal tissue levels had fallen more rapidly and, consequently, tumor/normal tissue ratios were in the 10-50 fold range, except for the kidneys where a high amount of radioactivity could still be measured.
# LS 174T xenografts = experiment: Anti-tumor effect of the prodrug therapy in nude mice with LS 174T xenografts; type: in vivo; settings: conjugate 1 mg/kg i.v.
# Procedure: FIG. 5: Therapeutic effect of cAb::βL/CCM combinations in nude mice with LS 174T xenografts. Conjugates (1 mg/kg) were injected i.v. on days indicated by the arrows, and CCM was administered 24 hours later. The therapeutic effects were compared to those of PDM at the MTD.
# The anti-tumor effect of giving cAb-CEA::βL conjugate (1 mg/kg body weight) followed 24 hours later by escalating doses of CCM (100, 150, 200 mg/kg) are shown in FIG. 5. […] Therapeutic efficiency was dose-dependent.
# Groups of five female athymic nude mice were injected subcutaneously with 2×10^6 LS 174T tumor cells. Ten days later when the tumors reached a size of about 100 mm^3, 1 mg/kg bodyweight of βL conjugates was injected i.v., followed 24 hours later by the prodrug CCM. Treatment with cAb-βL+CCM was carried out on a weekly schedule for a total of three rounds. The animals were monitored twice a week for general health, weight and tumor growth and compared to control groups receiving no treatment. Tumor volumes were calculated using the formula (longest length×perpendicular width^2)/2.
# [2] = system: LS 174T human adenocarcinoma cells; experiment: In vitro cytotoxicity assay, [3H] thymidine incorporation, conjugate + CCM prodrug; settings: cells blocked with unconjugated cAb-CEA5 0.1 mg/ml before conjugate
# LS 174T tumor xenografts = experiment: Conjugate localization (125I labeled conjugate biodistribution) in nude mice bearing LS 174T tumor xenografts; settings: mouse, in vivo, iv, 1 mg/kg
# Procedure: FIG. 4: Pharmacokinetics of cAb-CEA5::βL and the nonbinding control cAb-Lys3::βL in nude mice (three animals/group). βL conjugate levels in subcutaneous LS 174T colon carcinoma tumors and in normal tissues are shown at 6 hours, 24 hours and 48 hours post-administration. cAb-Lys3::βL served as nonbinding control.
# Studies were undertaken in nude mice to establish the extent of cAb-CEA5::β-lactamase conjugate localization in LS 174T tumor xenografts. ^125I labeled cAb-CEA5::β-lactamase (4,728,481 cpm/μg conjugate) or cAb-Lys3::β-lactamase conjugate (2,691,621 cpm/μg conjugate) were injected i.v. (1 mg/kg) into mice (3 animals/group) that had subcutaneous LS 174T carcinoma tumors of about 0.5-1 cm diameter. The amount of radioactivity in the tumors, blood, and several other tissues was determined 6 hours, 24 hours and 48 hours later (FIG. 4). […] In order to see whether the radioactivity measured originated from intact conjugate molecules or degraded material, the enzymatic activity of β-lactamase in targeted tumor, liver and kidney tissue using nitrocefin was assessed. […]
# The cAb-CEA::βL conjugate was radioiodinated with carrier-free ^125I using the IODOGEN reagent, following the manufacturer's (Pierce, Rockford, Ill., US) recommended method. […] The tumor, a sample of blood, and a range of other tissues were removed, weighed, and counted in a gamma counter.
molecule,measurement,setting,value
cAb-CEA5-βL (protein) QVQLVESGGGSVQAGGSLRLSCAASGDTYGSYWMGWFRQAPGKEREGVAAINRGGGYTVYADSVKGRFTISRDTAKNTVYLQMNSLRPDDTADYYCAASGVLGGLHEDWFNYWGQGTQVTVSSAHHSEDPSSKAPKAPMGTPVSEKQLAEVVANTITPLMKAQSVPGMAVAVIYQGKPHYYTFGKADIAANKPVTPQTLFELGSISKTFTGVLGGDAIARGEISLDDAVTRYWPQLTGKQWQGIRMLDLATYTAGGLPLQVPDEVTDNASLLRFYQNWQPQWKPGTTRLYANASIGLFGALAVKPSGMPYEQAMTTRVLKPLKLDHTWINVPKAEEAHYAWGYRDGKAVRVSPGMLDAQAYGVKTNVQDMANWVMANMAPENVADASLKQGIALAQSRYWRIGSMYQGLGWEMLNWPVEANTVVEGSDSKVALAPLPVAEVNPPAPPVKASWVHKTGSTGGFGSYVAFIPEKQIGIVMLANTSYPNPARVEAAYHILEALQHHHHHH,β-lactamase enzymatic activity in excised tumor tissue,[1],enzymatic activity was intact
same,β-lactamase enzymatic activity in kidney tissue,[1],no activity could be measured
same,β-lactamase enzymatic activity in liver tissue,[1],no activity could be measured
same,anti-tumor activity at 200 mg CCM/kg/injection,LS 174T xenografts; 24 hours later CCM 200 mg/kg/injection,Significant anti-tumor activity including partial regression of the tumors
same,anti-tumor effect of the prodrug therapy combination,"LS 174T xenografts; 24 hours later CCM 100, 150, 200 mg/kg, weekly, three rounds, vs non-treated or cAb-Lys3::βL + CCM",significant anti-tumor effect
same,prodrug CCM activation on cells saturated with unconjugated cAb-CEA5,[2],activated CCM at marginal levels
same,amount of conjugate in the tumors,LS 174T tumor xenografts,approximately 1 % injected dose/g tumor
